Molecular target: pSTAT3 (tyrosine-phosphorylated STAT3) (UniProt P40763)
Experiment: SPR
Conditions: PS x3 at 5' end of sense and 3' end of antisense; strands linked at one end by C-18 (18-atom hexa-ethyleneglycol) spacers; Langmuir 1:1, 4 C, 20 mM HEPES pH 7.0, 200 mM NaCl, 10 mM MgCl2

Sequence of pSTAT3 (tyrosine-phosphorylated STAT3) (P40763 whole entry): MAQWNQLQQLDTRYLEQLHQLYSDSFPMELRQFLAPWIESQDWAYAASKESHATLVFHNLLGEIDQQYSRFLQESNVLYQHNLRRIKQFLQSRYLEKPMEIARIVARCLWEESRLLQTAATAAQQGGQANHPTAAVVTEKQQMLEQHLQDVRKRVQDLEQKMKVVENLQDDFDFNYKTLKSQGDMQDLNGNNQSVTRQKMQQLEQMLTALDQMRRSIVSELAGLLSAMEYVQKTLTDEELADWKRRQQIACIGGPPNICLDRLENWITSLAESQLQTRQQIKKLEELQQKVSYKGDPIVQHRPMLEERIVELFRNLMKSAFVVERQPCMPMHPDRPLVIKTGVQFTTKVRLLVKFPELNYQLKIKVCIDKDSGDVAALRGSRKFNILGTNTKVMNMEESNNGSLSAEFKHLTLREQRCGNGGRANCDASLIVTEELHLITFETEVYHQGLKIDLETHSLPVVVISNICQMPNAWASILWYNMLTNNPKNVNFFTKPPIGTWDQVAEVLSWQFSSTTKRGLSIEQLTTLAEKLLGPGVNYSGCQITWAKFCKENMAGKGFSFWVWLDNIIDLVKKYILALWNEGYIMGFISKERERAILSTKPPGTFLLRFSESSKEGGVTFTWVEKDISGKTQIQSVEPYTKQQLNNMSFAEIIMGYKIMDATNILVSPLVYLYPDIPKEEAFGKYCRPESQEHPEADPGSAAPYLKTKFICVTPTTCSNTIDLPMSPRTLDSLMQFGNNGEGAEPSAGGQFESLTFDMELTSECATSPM

CATTTCCCGTAAATC (double strand) [DS18] gave a Kd of 0.142 µM.

Source: patent publication US20120288536
